From patent US20090202429A1 (TRUSTEES OF COLUMBIA UNIVERSITY IN THE CITY OF NEW YORK, published 2009) come the findings set out here.

Sequences and labels used below:
B1: recombinant murine VWF-A1 protein, wild type (amino acid residues 1238 to 1471, made in bacteria, His tag) (ligand)
chain: QEPGGLVAPPTDAPVSSTTPYVEDTPEPPLHNFYCSKLLDLVFLLDGSSMLSEAEFEVLKAFVVGMMERLHISQKRIRVAVVEYHDGSRAYLELKARKRPSELRRITSQIKYTGSQVASTSEVLKYTLFQIFGKIDRPEASHITLLLTASQEPPRMARNLVRYVQGLKKKKVIVIPVGIGPHASLKQIRLIEKQAPENKAFLLSGVDELEQRRDEIVSYLCDLAPEAPAPTQPP
modifications: single intra-chain disulfide bond between residues 1272 and 1458
notes: Treated as one molecule; also called M VWF-A1; mouse VWF-A1; not shown: amino-terminal 10 amino acids (including 6x histidine) contributed by the vector pQE9
B2: recombinant murine VWF-A1 protein with the type 2B mutation I1309V (1309I>V) (ligand)
chain: B1 chain with I72V
notes: also called M VWF-A1 protein containing the type 2B mutation I1309V; not shown: amino-terminal vector-derived tag with 6x histidine
B3: recombinant murine VWF-A1 protein with 1326R>H (ligand)
chain: B1 chain with R89H
notes: also called mutated murine protein; not shown: amino-terminal vector-derived tag with 6x histidine
B4: murine platelet glycoprotein Ib alpha (GPIb alpha), on mouse platelets (receptor, UniProt O35930 17-734, looked up)
chain: QHTCSISKVTSLLEVNCENKKLTALPADLPADTGILHLGENQLGTFSTASLVHFTHLTYLYLDRCELTSLQTNGKLIKLENLDLSHNNLKSLPSLGWALPALTTLDVSFNKLGSLSPGVLDGLSQLQELYLQNNDLKSLPPGLLLPTTKLKKLNLANNKLRELPSGLLDGLEDLDTLYLQRNWLRTIPKGFFGTLLLPFVFLHANSWYCDCEILYFRHWLQENANNVYLWKQGVDVKDTTPNVASVRCANLDNAPVYSYPGKGCPTSSGDTDYDDYDDIPDVPATRTEVKFSTNTKVHTTHWSLLAAAPSTSQDSQMISLPPTHKPTKKQSTFIHTQSPGFTTLPETMESNPTFYSLKLNTVLIPSPTTLEPTSTQATPEPNIQPMLTTSTLTTPEHSTTPVPTTTILTTPEHSTIPVPTTAILTTPKPSTIPVPTTATLTTLEPSTTPVPTTATLTTPEPSTTLVPTTATLTTPEHSTTPVPTTATLTTPEHSTTPVPTTATLTTPEPSTTLTNLVSTISPVLTTTLTTPESTPIETILEQFFTTELTLLPTLESTTTIIPEQNSFLNLPEVALVSSDTSESSPFLNSDFCCFLPLGFYVLGLLWLLFASVVLILLLTWTWHVTPHSLDMEQSAALATSTHTTSLEVQRARQVTMPRAWLLFLQGSLPTFRSSLFLWVRPNGRVGPLVAGRRPSALSQGRGQDLLGTVGIRYSGHSL
notes: whole, on cells; also called murine GPIb alpha; murine platelets
B5: recombinant human VWF-A1 protein with 1309I>V and 1324G>S (ligand)
chain: QEPGGLVVPPTDAPVSPTTLYVEDISEPPLHDFYCSRLLDLVFLLDGSSRLSEAEFEVLKAFVVDMMERLRVSQKWVRVAVVEYHDSSHAYIGLKDRKRPSELRRIASQVKYAGSQVASTSEVLKYTLFQIFSKIDRPEASRIALLLMASQEPQRMSRNFVRYVQGLKKKKVIVIPVGIGPHANLKQIRLIEKQAPENKAFVLSSVDELEQQRDEIVSYLCDLAPEAPPPTLPP
notes: also called doubly mutated protein; not shown: amino-terminal vector-derived tag with 6x histidine
B6: recombinant human VWF-A1 protein with 1309I>V and 1326H>R (ligand)
chain: B5 chain with S87G, H89R
notes: as for B5

Assay [1] concerns the target B4. Briefly: panel B: coated beads on surface-immobilized murine platelets in flow, ln of bead tethering events against time; shear stress 2.0 dyn cm-2; R2 0.95. The protocol: (§1) The cellular off-rates are determined by plotting the natural log of the number of VWF-A1 coated microspheres that interacted as a function of time after the initiation of tethering, the slope of the line=−koff (s⁻¹) which is the inverse of the bond lifetime. The force acting on the tether bond was calculated from force balance equations as stated above and koff plotted as a function of these forces.
(§2) The use of beads with one uniform size and shape permits determination of the relationship between wall shear stress and the force directly acting on the GPIb alpha-VWF-A1 tether bond (Fb), a parameter difficult to estimate for discoid-shaped objects such as platelets. […] This antibody was made by immunizing Fischer 344 rats (3-4 months old) with recombinant WT protein. […] Spleens from animals with the highest antibody titers were harvested and splenocytes fused with Sp2/0 mouse myeloma cells (54).

Assay [2] has as its target B4. Briefly: panel B: coated beads on surface-immobilized murine platelets in flow, ln of bead tethering events against time; shear stress 3.0 dyn cm-2; R2 0.98. As for the experimental part: as §1, §2
The target in assay [3] is B4. Description: panel B: coated beads on surface-immobilized murine platelets in flow, ln of bead tethering events against time; shear stress 0.5 dyn cm-2; R2 0.96. The protocol: as §1, §2
Assay [4] has as its target B4. Briefly: coated beads on surface-immobilized murine platelets in flow, ln of bead tethering events against time; shear stress 0.5 dyn cm-2; R2 0.96. The protocol:
as §1, §2

The target in assay [5] is B4. Briefly: coated beads on surface-immobilized murine platelets in flow, ln of bead tethering events against time; shear stress 1.0 dyn cm-2; R2 0.95. As for the experimental part:
as §1, §2

Assay [6] addresses B4. Description: coated beads on surface-immobilized murine platelets in flow, ln of bead tethering events against time; shear stress 2.0 dyn cm-2; R2 0.98. The protocol:
as §1, §2

The target in assay [7] is B4. Description: platelet adhesion to coated recombinant VWF-A1, flow chamber, 800 s^-1.
In assay [8] the target is B4. Description: cell-based or functional assay.
In assay [9] the target is T1, human platelet glycoprotein Ib alpha (GPIb alpha), on human platelets (human, UniProt P07359 17-652).
T1 construct: whole, on cells; also called GPIbα; human GPIb alpha
Briefly: human platelets perfused over coated mutant VWF-A1, wall shear rate 800 s-1; the sheet states that R563H corresponds to R1326H.

Assay [10] deals with T2, murine plasma VWF with the 1326R>H mutation (from homozygous VWF 1326R>H knock-in mice) (mouse, UniProt Q8CIZ8 764-2813).
T2 construct: Plasma-derived multimeric VWF; also called R1326H mutant mouse VWF; mutant mouse plasma VWF
Briefly: not told at this place.

Assay [11] concerns the target T1, human platelet glycoprotein Ib alpha …. Briefly: human platelets attached to coated human VWF-A1 against wall shear rate.
The target is the same in assay [12]. Briefly: interaction times of VWF-A1 coated beads on surface-immobilized platelets, wall shear stress 1 dyn cm^-2. As for the experimental part:
The duration of these interactions are measured by recording images from a Nikon X60 DIC objective (oil immersion) viewed at a frame rate of 235 fps (Speed Vision Technologies, San Diego, Calif.) and subjected to wall shear stresses (WSS) ranging from 0.5 to 3.0 dyn cm⁻². The cellular off-rates are determined by plotting the natural log of the number of VWF-A1 coated microspheres that interacted as a function of time after the initiation of tethering, the slope of the line=−koff (s⁻¹) which is the inverse of the bond lifetime. The force acting on the tether bond was calculated from force balance equations as stated above and koff plotted as a function of these forces.

Residue numbers refer to the chain shown, from its start. In names and notes the source's numbering stands.

T1 sequence (P07359 17-652): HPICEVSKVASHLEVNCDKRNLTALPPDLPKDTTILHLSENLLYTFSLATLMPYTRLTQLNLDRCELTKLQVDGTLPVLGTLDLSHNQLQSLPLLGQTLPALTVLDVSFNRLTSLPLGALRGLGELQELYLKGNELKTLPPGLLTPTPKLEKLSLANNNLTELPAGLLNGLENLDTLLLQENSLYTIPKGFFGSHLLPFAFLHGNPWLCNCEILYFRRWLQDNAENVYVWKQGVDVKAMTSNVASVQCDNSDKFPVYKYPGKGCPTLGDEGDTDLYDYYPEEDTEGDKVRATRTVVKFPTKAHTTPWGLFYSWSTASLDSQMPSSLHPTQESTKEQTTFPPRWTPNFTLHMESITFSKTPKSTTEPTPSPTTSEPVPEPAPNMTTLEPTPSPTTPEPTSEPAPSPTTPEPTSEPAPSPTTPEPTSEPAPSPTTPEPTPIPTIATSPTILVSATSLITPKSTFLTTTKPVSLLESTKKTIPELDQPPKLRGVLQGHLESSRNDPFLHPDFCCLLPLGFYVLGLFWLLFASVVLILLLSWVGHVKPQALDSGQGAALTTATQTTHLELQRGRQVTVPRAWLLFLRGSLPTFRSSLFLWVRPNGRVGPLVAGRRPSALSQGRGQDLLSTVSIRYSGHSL
T2 sequence (Q8CIZ8 other isoform, or with tags, fused parts or gaps limits assumed): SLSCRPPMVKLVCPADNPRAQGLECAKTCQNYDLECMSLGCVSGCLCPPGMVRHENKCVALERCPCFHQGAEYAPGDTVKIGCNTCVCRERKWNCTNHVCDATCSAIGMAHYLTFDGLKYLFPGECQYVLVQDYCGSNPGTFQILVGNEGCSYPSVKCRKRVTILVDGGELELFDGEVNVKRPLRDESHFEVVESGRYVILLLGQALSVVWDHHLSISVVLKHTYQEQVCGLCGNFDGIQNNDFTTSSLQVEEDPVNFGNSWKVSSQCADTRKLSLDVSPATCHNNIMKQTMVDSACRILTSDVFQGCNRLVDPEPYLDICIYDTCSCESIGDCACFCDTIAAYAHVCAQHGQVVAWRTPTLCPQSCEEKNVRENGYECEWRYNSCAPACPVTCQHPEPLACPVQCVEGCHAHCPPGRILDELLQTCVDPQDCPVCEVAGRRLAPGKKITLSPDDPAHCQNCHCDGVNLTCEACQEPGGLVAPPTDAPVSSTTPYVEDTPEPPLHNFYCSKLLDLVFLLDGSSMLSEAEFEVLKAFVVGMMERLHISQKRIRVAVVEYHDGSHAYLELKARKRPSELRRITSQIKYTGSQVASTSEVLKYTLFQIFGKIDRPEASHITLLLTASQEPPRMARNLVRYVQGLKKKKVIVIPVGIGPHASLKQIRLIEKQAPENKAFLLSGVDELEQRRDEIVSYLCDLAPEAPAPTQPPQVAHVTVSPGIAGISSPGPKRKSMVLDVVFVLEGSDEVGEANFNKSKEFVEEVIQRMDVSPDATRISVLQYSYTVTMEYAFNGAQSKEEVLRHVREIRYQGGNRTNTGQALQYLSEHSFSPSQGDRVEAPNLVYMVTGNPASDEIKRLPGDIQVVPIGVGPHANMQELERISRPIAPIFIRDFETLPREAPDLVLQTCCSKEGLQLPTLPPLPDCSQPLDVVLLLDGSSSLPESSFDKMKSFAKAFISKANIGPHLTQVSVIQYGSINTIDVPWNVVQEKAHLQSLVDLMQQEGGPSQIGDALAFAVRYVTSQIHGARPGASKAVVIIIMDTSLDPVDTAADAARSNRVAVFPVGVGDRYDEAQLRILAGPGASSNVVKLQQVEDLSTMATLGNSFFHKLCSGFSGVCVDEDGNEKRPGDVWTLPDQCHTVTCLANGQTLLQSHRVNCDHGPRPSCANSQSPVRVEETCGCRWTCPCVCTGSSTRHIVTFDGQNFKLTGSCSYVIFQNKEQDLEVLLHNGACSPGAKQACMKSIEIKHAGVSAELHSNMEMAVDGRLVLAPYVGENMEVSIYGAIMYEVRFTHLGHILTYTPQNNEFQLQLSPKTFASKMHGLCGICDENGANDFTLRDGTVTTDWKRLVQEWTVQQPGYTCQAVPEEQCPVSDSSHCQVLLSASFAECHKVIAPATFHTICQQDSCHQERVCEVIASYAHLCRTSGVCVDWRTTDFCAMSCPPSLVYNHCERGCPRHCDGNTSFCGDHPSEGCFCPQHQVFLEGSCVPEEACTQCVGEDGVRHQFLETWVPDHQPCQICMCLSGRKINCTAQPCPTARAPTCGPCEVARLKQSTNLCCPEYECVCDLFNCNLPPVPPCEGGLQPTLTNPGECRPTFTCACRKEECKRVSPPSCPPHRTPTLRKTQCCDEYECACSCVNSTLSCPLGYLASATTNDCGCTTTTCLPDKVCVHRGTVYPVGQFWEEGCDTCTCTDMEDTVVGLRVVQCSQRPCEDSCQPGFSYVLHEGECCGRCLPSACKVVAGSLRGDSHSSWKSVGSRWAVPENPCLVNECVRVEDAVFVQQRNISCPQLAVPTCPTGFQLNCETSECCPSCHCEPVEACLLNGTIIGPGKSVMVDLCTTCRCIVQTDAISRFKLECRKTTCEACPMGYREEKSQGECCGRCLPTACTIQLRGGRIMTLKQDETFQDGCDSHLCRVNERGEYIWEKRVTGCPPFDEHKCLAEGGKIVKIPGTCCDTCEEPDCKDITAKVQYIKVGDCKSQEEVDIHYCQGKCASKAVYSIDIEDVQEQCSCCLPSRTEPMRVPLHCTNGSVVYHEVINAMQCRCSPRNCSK

B1: the koff in assay [1] is 8.4 s⁻¹; in assay [2], 9.9 s⁻¹; in assay [3] it was 5.1 s⁻¹.
For the molecule B2, the koff turned out to be 0.7 s⁻¹ in [4], 0.9 s⁻¹ in assay [5] and 1.6 s⁻¹ in assay [6].
With B3, the “fold reduction of platelet adhesion against the WT mouse protein” value in assay [7] is roughly 5 fold. Moreover, in assay [8], the “translocation velocities of murine platelets, fold increase against the WT mouse protein, 800 s^-1” value was roughly 7 fold. In [9], the binding result is given as “binds”.
In the case of B4, the binding result in assay [10] is “binds”.
Consider B5, for which, in [11], the binding result is on record as “no binding”.
With B6, in [12], the “fold reduction in koff against the single mutant 1326H>R” value is 2 fold and the koff amounted to 8.5 s⁻¹.
